Where a chain is given by its changes, count along the chain named.
B1: murine monoclonal antibody 12A11 (isotype IgG1) (antibody, V domains shown)
VH: QVTLKESGPGILKPSQTLSLTCSFSGFSLSTSGMSVGWIRQPSGKGLEWLAHIWWDDDKYYNPSLKSRLTISKDTSRNQVFLKITSVDTADTATYYCARRTTTADYFAYWGQGTTLTVSS
VL: DVLMTQTPLSLPVSLGDQASISCRSSQSIVHSNGNTYLEWYLQKPGQSPKLLIYKVSNRFSGVPDRFSGSGSGTDFTLKISRVEAEDLGIYYCFQSSHVPLTFGAGTKLELK
notes: Mouse IgG1 from the hybridoma; also called mAb 12A11; m12A11
B2: humanized 12A11 antibody, version 6.1 (antibody, V domains shown)
VH: QVQLVESGGGVVQPGRSLRLSCAFSGFTLSTSGMSVGWIRQAPGKGLEWVAHIWWDDDKYYNPSLKSRFTISKDTSKNTVYLQMNSLRAEDTAVYYCARRTTTADYFAYWGQGTTVTVSS
VL: DVVMTQSPLSLPVTPGEPASISCRSSQSIVHSNGNTYLEWYLQKPGQSPQLLIYKVSNRFSGVPDRFSGSGSGTDFTLKISRVEAEDVGVYYCFQSSHVPLTFGQGTKLEIK
notes: Variable regions only; also called h12A11v6.1; バージョン6.1
B3: humanized 12A11 antibody, version 5.3 (antibody, V domains shown)
VH: B2 VH with V50L, F69L, V80L
VL: B2 VL
notes: Variable regions only; also called h12A11v5.3; バージョン5.3
B4: humanized 12A11 antibody, version 5.1 (antibody, V domains shown)
VH: B2 VH with F69L
VL: B2 VL
notes: Variable regions only; also called h12A11v5.1; バージョン5.1
B5: humanized 12A11 antibody, version 6.4 (antibody, V domains shown)
VH: B2 VH with T28S, V80L
VL: B2 VL
notes: Variable regions only; also called h12A11v6.4; バージョン6.4
B6: humanized 12A11 antibody, version 5.2 (antibody, V domains shown)
VH: B2 VH with V50L
VL: B2 VL
notes: Variable regions only; also called h12A11v5.2; バージョン5.2
B7: humanized 12A11 antibody, version 3 (antibody, V domains shown)
VH: B2 VH with K73R, T75N, V80L
VL: B2 VL
notes: Variable regions only; tested in conditioned medium of COS cells; also called h12A11v3; v3
B8: humanized 12A11 antibody, version 5.4 (antibody, V domains shown)
VH: B2 VH with T28S
VL: B2 VL
notes: Variable regions only; also called h12A11v5.4; バージョン5.4
B9: humanized 12A11 antibody, version 2.1 (antibody, V domains shown)
VH: B2 VH with T75N, V80L
VL: B2 VL
notes: Variable regions only; tested in conditioned medium of COS cells; also called h12A11v2.1; v2.1
B10: humanized 12A11 antibody, version 5.6 (antibody, V domains shown)
VH: B2 VH with T28S, V50L, V80L
VL: B2 VL
notes: Variable regions only; also called h12A11v5.6; バージョン5.6
B11: humanized 12A11 antibody, version 6.2 (antibody, V domains shown)
VH: B2 VH with F69L, V80L
VL: B2 VL
notes: Variable regions only; also called h12A11v6.2; バージョン6.2
B12: humanized 12A11 antibody, version 6.3 (antibody, V domains shown)
VH: B2 VH with V50L, V80L
VL: B2 VL
notes: Variable regions only; also called h12A11v6.3; バージョン6.3
B13: humanized 12A11 antibody, version 5.5 (antibody, V domains shown)
VH: B2 VH with T28S, F69L, V80L
VL: B2 VL
notes: Variable regions only; also called h12A11v5.5; バージョン5.5
B14: recombinant mouse 12A11 Cγ2a (isotype-switched 12A11) (antibody, V domains shown)
VH: B1 VH
VL: B1 VL
modifications: biotin conjugated (in the ELISA and the competition assay)
notes: also called m12A11Cγ2a; biotin-conjugated m12A11Cγ2a

Each binder was assayed against T1, aggregated synthetic Aβ1-42 (human, UniProt P05067 672-713) (assay: ELISA on aggregated synthetic Aβ1-42).
T1 construct: domain: Aβ1-42; Synthetic peptide, aggregated, coated for ELISA; also called 凝集Aβ1−42; Aβ(1-42) aggregate

Binding result, binds:
B1

Each binder was assayed against T1, aggregated synthetic Aβ1-42 (assay: quantitative Aβ(1-42) aggregate binding assay, COS conditioned medium).

Binding result, binds:
B2, B3, B4, B5, B6, B7, B8, B9, B10, B11, B12, B13

What follows are binders tested against T1, aggregated synthetic Aβ1-42 (assay: ELISA on aggregated Aβ1-42, streptavidin-HRP as reporter; confirmed (sentence runs on into paragraph 399)).

Binding result, binds:
B14
